The DeepSol protein solubility set

Experiment: soluble on expression in E. coli; label from the status in PepcDB or PDB records
For “MGSDKIHHHHHHMTEKLVAEKISNRHPAAAPLATGQVPWAIKGELILNCNCTVFCPCVVSLGKHAPTEGYCQAWSGVRIDEGHYGDEDLSGLNVGLMLEIPGLMARGNWKAAAYIDERSSSAAYEGLVNIFSGKARGTTGLFAVLVSEFLGAERAPVIFETEGNARRLMVGKKIQGEIVPVPGKGGADQVVTNTEYWMGPDITVATATKGRVRAFGRVWDFDGRSAEICQIDWSGPR”, the “soluble on expression in E. coli” value was “not soluble”. With “MGSDKIHHHHHHMTENSRKTATELFEFLDGLGISHTTKQHEPVFTVAESQSLRDLIPGGHTKNLFVKDKKDQYFVLTVEENAVVDLKSVHKTIGAASRVSFGRPEKMLEYLGVVPGSVTVFGAINDTARQVTFVLDSDLLENELVNGHPLSNDQTTTIASKDLIRFLEATGHAPLVLKVSE” the “soluble on expression in E. coli” value was “soluble”. For “MGSDKIHHHHHHMTEQATTTDELAFTRPYGEQEKQILTAEAVEFLTELVTHFTPQRNKLLAARIQQQQDIDNGTLPDFISETASIRDADWKIRGIPADLEDRRVEITGPVERKMVINALNANVKVFMADFEDSLAPDWNKVIDGQINLRDAVNGTISYTNEAGKIYQLKPNPAVLICRVRGLHLPEKHVTWRGEAIPGSLFDFALYFFHNYQALLAKGSGPYFYLPKTQSWQEAAWWSEVFSYAEDRFNLPRGTIKATLLIETLPAVFQMDEILHALRDHIVGLNCGRWDYIFSYIKTLKNYPDRVLPDRQAVTMDKPFLNAYSRLLIKTCHKRGAFAMGGMAAFIPSKDEEHNNQVLNKVKADKSLEANNGHDGTWIAHPGLADTAMAVFNDILGSRKNQLEVMREQDAPITADQLLAPCDGERTEEGMRANIRVAVQYIEAWISGNGCVPIYGLMEDAATAEISRTSIWQWIHHQKTLSNGKPVTKALFRQMLGEEMKVIASELGEERFSQGRFDDAARLMEQITTSDELIDFLTLPGYRLLA”, the “soluble on expression in E. coli” value was “not soluble”. For “MGSDKIHHHHHHMTFAQIQTFLAVARLGNFHAAARQLNVTQAAVSARVRQLEEELDLRLFERGRRGAELTEAGRFLLPGAEAIASTWTTISKDARHFYAGRVPLRLGGQLSIWDQQLVDLVIWVEETLGALPLALNFDHEMNVQDAIRNGVLDFALTHEQPAPDLTGVALPAERLVLVGSEPFDLGQSDLPLFMNFQLGGQYDAFVARHLSGHAGQHIMMGNCAMGLRYLRKRGGIAFFPVSMVVEDIQHGHLFPVQGVPEMELACNAVYHPSSVLGDLTAQIATAARSLRSREPVVALDTMS”, the “soluble on expression in E. coli” value was “not soluble”. With “MGSDKIHHHHHHMTFGEKLLNAASTRGRLCVGIDPHESLLTSWGLPVNVDGLAEFSRACVEAFADTVALVKPQVAFYERFGSAGFAILEETIQTLRERGCLVVSDAKRGDIGSTMAGYASAWLDPASPLSSDAVTVSPYLGFHSLDPVFELAEQHGRGVFVLAATSNPEARELQDQQNADGVSISQQIVDQAAALNAPYMAQGKAGNIGVVIGATLSKPPRLSTLGGAILMPGVGAQGGTASDVDEIAGDMAHLAFPNVSRSILATGPDIAEMKNSVAKNAADFPGFPRS” the “soluble on expression in E. coli” value was “not soluble”. With “MGSDKIHHHHHHMTFRGGNTGAKHAVVVGSGPNGLTTAAVLAKAGWQVDVYEAAPTPGGAARSESVLGEGTISDLGAAGHPFGVASPAFHYLGLEDHGLEWAYSPFAMAHPLDYGRAGLLETSLPETAKKLGPDARRWKNLHQGLTKNIDKHLANLLGPVLKWPAHPIRMAKFGPFALLPAKRLASAAFETEEARSLFIGSAMHSVTPPHKPMTASLGLLFGALGMSRGWPVAVGGSGRIVDALVNVINHHGGTIHCDSQIDSLSQFRDTDAIILNQTPSQVLKLKGTDLNAGLPQRMSTWKHGPSSYKVDYLLDGPIPWSNPQVGQATTVHVGGSSEEIAFAEAEVAAGRMPERPFIILCQQQVADPSRAREGRHVVWAYAHVPRGFVDKRAALLITAQIERFAPGFRDRIVHSVDTNAEDLEAWNPNLVGGDITAGSALLRRMPTKIGEKTYMASASNAPGGGVHGMPGWWAAQAVLADHR” the “soluble on expression in E. coli” value was “not soluble”. With “MGSDKIHHHHHHMTGIVTANWWTSLIYRVFVRTACLRAGRGLLPNIWEWLWRLSCNIIEGPVDITIHNRPAIVNFGYTYPIYMRCYPELNAPLVELTYQCWRSRGTAICIVDVGAAVGDTMLLLHSNLPEAVGSFVCIEGDQEFYRYLQHNLGHMTEGRLINVVVADQETEVSDLVRIHTGTASAQGERTRGASTLSAVVTEEIDLIKIDVDGFDGRVLLGAEDLLKRCRPLVIFEWHPSLCRQTGNNWTDHFDVLARCGYSRCLWFTKFGHFSHFSFGHCREEIDTLAEYCMSDVVKDWHYDVIALHDDSDLSLLLLSQLGFAKARPSRY” the “soluble on expression in E. coli” value was “not soluble”. With “MGSDKIHHHHHHMTIDNQTGLVLEGGGMRGVFTCGVLDYLMDHDIRFPYTIGVSAGACNGLSYMSRQRGRAKYSNIDLLEKYHYIGLKHLLKKRNILDFDLLFTEFPEHILPYDYQAYFDSPERYVMVTTNCLTGEADYFEEKKDKNRVIDIVRASSSLPFVCPIAYVDGIPMLDGGIVDSIPLQRAIHDGYRNNVVVLTRNRGYRKENKDIRIPPFVYRKYPKMREALSRRCAAYNAQLEMVERMEEEGDILVIRPQKPVVVDRIERDIQKLTDLYEEGYECAKRQFEVL” the “soluble on expression in E. coli” value was “not soluble”. With “MGSDKIHHHHHHMTIDTNFSKWFLQPSKESAQMYETVMQRALTLVVEHMKEAANPFSGADRHSIQQAVKDAAFISYSGEPIDGVIRAIQEGVMKHSLWISHPSAMAHLHCPPLLPSLVAEVVINALNQSMDSWDQSPSATYVETELLRFFTRSIGYSDLGDGVFTSGGTQSNYMGMLLARNKICESAFATNVQEEGLPVDARKLRILCSQEAHFSVQKSAAQLGLGANAVVQVATNERQQLCVNETRQTINELRLKGLIPFMIVATAGTTDFGSIDKLREIAELAREQELWLHVDAAYGGALLFSRQYGHLLNGLHLADSITIDFHKFYYQSISCGAFFVKDRHEFERIRFHADYLNPEEDKEADIINLVEKSVQTTKRFDALKLLVTFKWMGTEQFGQMIDYTIQLAKETGELLRRYGFDVLNDPELNAVVFRYVPECHRDDQSYVDQLNLTLQRHFYERGDLIMAKTKQRGHVYLKFTMLNPLNTIENMKTQIQKVKKAGIEFEKTQGAIRHEHVIHS” the “soluble on expression in E. coli” value was “not soluble”. In the case of “MGSDKIHHHHHHMTIQDYMLETPVRMREIISNADSLFNEVKRTNLKKIIITGSGTSYHSGVQVQPYLQNLLDIDVVKMYPFMITEDTFKFDNENTLVVGVSQGGSSYSTYNAMKLAEDKGCKIASMAGCKNALIDEISDYILTVNCGEEKSGAKTKGYYCTKLNLMLLGLQIAREKGIISSEKYNEEINKILDAINRFEAVYKLSKQWIERNKEKLVNSKEIRIIGHSDIYGDTLEAALKLLETMRIPVTGYEFEEFIHGIYNAINSDSTIFILDTGKEPRVTKMIDVLSGWTENVFAIGRDVTENDKNLKIDITDNPYYQTFNFIVPIQLICGEIPTLRGVDPSVPKDTRFHMKLGSKKLNK”, the “soluble on expression in E. coli” value is reported as “not soluble”. For “MGSDKIHHHHHHMTISNQELTLTPLRGKSGKAYIGTYPNGERVFVKYNTTPILPALAKEQIAPQLLWARRTSNGDMMSAQEWLDGRTLTKEDMGSKQIIHILLRLHKSRPLVNQLLQLGYKIENPYDLLMDWEKQTPIQIRENTYLQSIVTELKRSLPEFRTEVATIVHGDIKHSNWVITTSGLIYLVDWDSVRLTDRMYDVAYILSHYIPQKHWKDWLSYYGYKDNEKVWSKIIWYGQFSYLSQIIKCFDKRDMEHVNQEIYELRKFRELIKKHNAS”, the “soluble on expression in E. coli” value was “not soluble”. In the case of “MGSDKIHHHHHHMTIVYLYTALCTVGGADRSIIQKANYLADEMHQDVFIITDSQKERPPVFPISPRIRHIDIGIDFDRQYHHNLLVRGYYYFTLMHLYRKKLEYWLKTLKPDIVISTLGRELDFLTQLDDGSVKIGESHIAKPYTRNLHLMEQRGFPYKQIARHWRKKQEEAVKKLDALVVLTQHDADNWKEVKKACVIPNFLPFSPEKGSSCLEKRIISIGRYSEQKGYDRLIEAWIKVNRKHPDWHIRIYGEGQDRNSLQELIEKHHIENSFSLCPPTKSIQEKYLESSIYVMSSRFEGLPMALLEAMACGVPCISFDCPYGPAEIITPEEDGILVKNGNTDELADAICRLIEDTDKRIRMGKQAQKNIQRYSREEVMKLWDELFNTLTTARP”, the “soluble on expression in E. coli” value is reported as “not soluble”. In the case of “MGSDKIHHHHHHMTKEQNSTENLDFQSPSDDTNLEGDFTADIVALAAKVEVQIQKIAERQRQISAKVQIPQPVEKIWKVLTDYEALPDFLPNLAKSRLIEHPNGGIRLEQVGSQRLLNFNFSARVVLDLEECFPREINFRMVEGDFKGFSGSWCLEPYSLGEYIGTNLCYTIQVWPKLTMPVGIIENRLSKDLRLNLVAIHQRVEELANKQPYI”, the “soluble on expression in E. coli” value is reported as “not soluble”.
